In US20230192897A1 (NUMAB THERAPEUTICS, published 2023):

Tests used:
[1] = molecular target: T1, CD137 on Jurkat NFkB reporter cells (human, UniProt Q07011 24-255); experiment: cell-based or functional assay
[2] = molecular target: T2, Fc tagged human CD137 (human, UniProt Q07011 24-186); experiment: SPR
T2 construct: also called CD137-Fc chimeric protein
Method in brief: (§1)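 Kinetics were fitted with a one-to-one Langmuir model to give apparent ka, kd and KD. Binders at 0.12-90 nM (three-fold series) flowed 3 min, with 10 min dissociation and 3 M MgCl₂ regeneration, on a Biacore T200.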

[3] = molecular target: T3, mouse CD137-Fc chimeric protein (mouse, UniProt P20334 24-187, limits assumed); experiment: SPR
T3 sequence (looked up): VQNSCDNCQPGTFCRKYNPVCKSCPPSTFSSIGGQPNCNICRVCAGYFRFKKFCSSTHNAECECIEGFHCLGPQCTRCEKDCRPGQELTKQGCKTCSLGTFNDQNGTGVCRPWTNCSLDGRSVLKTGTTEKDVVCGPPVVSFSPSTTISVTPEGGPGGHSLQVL
Method in brief: as §1

[4] = molecular target: T4, Fc tagged human PDL1 (human, UniProt Q9NZQ7 19-239); experiment: SPR
T4 construct: Bought (Sino Biological, cat. 10084-H02H); captured on the SPR chip; also called PDL1-Fc chimeric protein
Method in brief: as §1

[5] = molecular target: T1, CD137 on Jurkat NFkB reporter cells; experiment: cell-based or functional assay; remark: listed apart in the source
[6] = molecular target: T5, biotinylated human PDL1 (human, UniProt Q9NZQ7 19-238, limits assumed, biotinylated); experiment: competition ELISA PD-1/PDL1
T5 construct: also called biotinylated PDL1

[7] = molecular target: T1, CD137 on Jurkat NFkB reporter cells; experiment: cell-based or functional assay; remark: listed apart in the source
[8] = molecular target: T1, CD137 on Jurkat NFkB reporter cells; experiment: cell-based or functional assay; remark: listed apart in the source
[9] = molecular target: T6, human PDL1 on cells (human, UniProt Q9NZQ7 19-290); experiment: cell-based or functional assay
[10] = molecular target: T7, mouse serum albumin (mouse, UniProt P07724 25-608); experiment: SPR, SA coupled to chip, pH 5.5
T7 construct: Coupled directly to the CM5 chip; also called MSA; mouse SA
Description: (§2) Affinity of molecules to serum albumin (SA) of the different species was determined by SPR measurements using a Biacore T200 device (GE Healthcare). SA was directly coupled to a CM5 sensor chip (GE Healthcare) using amine coupling chemistry. […] The assay was run in a 1× PBS-Tween buffer at pH 5.5.

[11] = molecular target: T8, human serum albumin (human, UniProt P02768 25-609); experiment: SPR, SA coupled to chip, pH 5.5
T8 construct: Coupled directly to the CM5 chip; also called HSA; human SA
Description: as §2

[12] = molecular target: T6, human PDL1 on cells; experiment: cell-based or functional assay; remark: listed apart in the source
[13] = molecular target: T5, biotinylated human PDL1; experiment: competition ELISA B7.1/PDL1
Method in brief: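 IC₅₀ was derived by four-parameter logistic fitting of reference-subtracted A450/690 readings. The signal came from streptavidin-polyHRP40 (10 ng/ml) with a 6-minute TMB reaction detecting biotinylated PDL1 bound to the plate. Pre-mixed samples sat 1 h at RT before a 1.5 h plate incubation.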

B1: PRO1126 (bispecific antibody)
chain: DFQLTQSPSSLSASVGDRVTITCQASQSINDYLAWYQQKPGKSPKLLIYKASTLASGVPSRFSGSGSGTDFTLTISSLQPEDFATYYCQQGYIITDIDNVFGTGTKVTVLGGGGGSQVQLQESGPGLVKPSETLSLTCKVSGFSFSNSYWICWIRQPPGKGLEWIGCTFVGSSDSTYYANWAKGRVTISVDSSKNQFSLKLSSVTAADTAVYYCARHPSDAVYGYANNLWGQGTLVTVSSGGGGSGGGGSGGGGSGGGGSIQMTQSPSSLSASVGDRVTITCQASQSINNVLAWYQQKPGKAPKLLIYRASTLASGVPSRFSGSGSGTDFTLTISSLQPEDFATYYCQSSYGNYGDFGTGTKVTVLGGGGGSQSQLQESGPGLVKPSETLSLTCKASGFSFSSGYDMCWVRQPPGKGLEWIACVVAGSVDITYYASWAKGRVTISKDSSKNQVSLKLSSVTAADTAVYFCARKDAYSDAFNLWGQGTLVTVSS
notes: scDb; also called 38-02-A04 sc01 scDb-i/33-03-G02 sc03 Full scDb-o
[1]
  IC50 (ng/ml), NFkB reporter, CHO-PD-L1: 6 ng/mL
  IC50 (ng/ml), NFkB reporter, HCC827 + IFNg: 5.48 ng/mL
  IC50 (ng/ml), NFkB reporter, HCC827 - IFNg: 6.97 ng/mL
  max. activation (%), NFkB reporter, CHO-PD-L1: 242%
  max. activation (%), NFkB reporter, HCC827 + IFNg: 208%
  max. activation (%), NFkB reporter, HCC827 - IFNg: 135%
  rel. IC50 (urelumab/test), NFkB reporter, CHO-PD-L1: 14.4 fold
  rel. IC50 (urelumab/test), NFkB reporter, HCC827 + IFNg: 19.7 fold
  rel. IC50 (urelumab/test), NFkB reporter, HCC827 - IFNg: 16 fold
[2]
  Kd: 3.5 nM
  koff: 0.00075 s⁻¹
  kon: 210000 M⁻¹ s⁻¹
[3]
  binding result: no binding
[4]
  Kd: ≤ 0.0035 nM
  fold improvement in affinity against PRO885 (CDR graft): 20 fold
  koff: < 1e-05 s⁻¹
[5]
  EC50, NFkB reporter, HCC827 without IFNg: 6.97 ng/mL
  Top of curve fit, NFkB reporter, HCC827 without IFNg: 135
[6]
  IC50: 1.28 ng/mL
  rel. IC50 (IC50 avelumab/IC50 test): 1.59 fold
[7]
  EC50, NFkB reporter, CHO-PDL1: 6 ng/mL
  Top of curve fit, NFkB reporter, CHO-PDL1: 242
[8]
  EC50, NFkB reporter, HCC827 with IFNg: 5.48 ng/mL
  Top of curve fit, NFkB reporter, HCC827 with IFNg: 208
[9]
  IC50, NFAT reporter gene assay: 48.1 ng/mL

B2: PRO1186 (other)
chain: DIQMTQSPSSLSASVGDRVTITCQASQSIGTYLAWYQQKPGKAPKLLIYRAFILASGVPSRFSGSGSGTDFTLTISSLQPEDFATYYCQSNFYSDSTTIGPNAFGTGTKVTVLGGGGGSQVQLQESGPGLVKPSETLSLTCKVSGFSFSNSYWICWIRQPPGKGLEWIGCTFVGSSDSTYYANWAKGRVTISVDSSKNQFSLKLSSVTAADTAVYYCARHPSDAVYGYANNLWGQGTLVTVSSGGGGSGGGGSGGGGSGGGGSDIQMTQSPSSLSASVGDRVTITCQASQSINNVLAWYQQKPGKAPKLLIYRASTLASGVPSRFSGSGSGTDFTLTISSLQPEDFATYYCQSSYGNYGDFGTGTKVTVLGGGGGSQVQLQESGPGLVKPSETLSLTCKVSGFSFNSDYWIYWIRQPPGKGLEWIGSIYGGSSGNTQYASWAQGRVTISVDSSKNQFSLKLSSVTAADTAVYYCARGYVDYGGATDLWGQGTLVTVSSGGGGSGGGGSVVMTQSPSSLSASVGDRVTITCQASQIISSRSAWYQQKPGQPPKLLIYQASKLASGVPSRFSGSGSGTDFTLTISSLQPEDFATYYCQCTYIDSNFGAFGGGTKLTVLGGGGGSGGGGSGGGGSGGGGSEVQLVESGGGLVQPGGSLRLSCAASGFSFSSSYWICWVRQAPGKGLEWVGCVFTGDGTTYYASWAKGRFTISRDNSKNTVYLQMNSLRAEDTATYFCARPVSVYYYGMDLWGQGTLVTVSS
notes: trispecific scDb-scFv; also called 38-02-A04 sc01 scDb-i/37-20-B03sc01 scDb-o/23-13-A01-sc03 scFv
[10]
  kon: 220000 M⁻¹ s⁻¹
[11]
  Kd: 2.9 nM
  koff: 0.00072 s⁻¹
  kon: 250000 M⁻¹ s⁻¹
[12]
  IC50 (ng/ml), NF-AT potency assay, +HSA: 10.2 ng/mL
  rel. IC50 (avelumab/test), +HSA: 2.31 fold
[1]
  IC50 (ng/ml), NFkB reporter, CHO-PD-L1, 24 h, +HSA: 51 ng/mL
  IC50 (ng/ml), NFkB reporter, HCC827 + IFNg, 24 h, +HSA: 16.7 ng/mL
  max. activation (%), NFkB reporter, CHO-PD-L1, 24 h, +HSA: 152%
  rel. IC50 (urelumab/test), NFkB reporter, CHO-PD-L1, 24 h, +HSA: 0.97 fold
  rel. IC50 (urelumab/test), NFkB reporter, HCC827 + IFNg, 24 h, +HSA: 1.88 fold
[2]
  Kd: 2.6 nM
  koff: 0.0005 s⁻¹
[4]
  Kd: 0.0037 nM
  koff: 2.3e-05 s⁻¹
  kon: 6.2e+06 M⁻¹ s⁻¹
[13]
  IC50: 7.81 ng/mL
  rel. IC50 (IC50 avelumab/IC50 test): 1.58 fold
[6]
  IC50: 1.74 ng/mL
  rel. IC50 (IC50 avelumab/IC50 test): 1.26 fold
